B1: GSYSALLAKK (peptide)
peptide: GSYSALLAKK
B2: STNNEGNLK (peptide)
peptide: STNNEGNLK
B3: SVKLQGTSK (peptide)
peptide: SVKLQGTSK
B4: AVLDLGSLLAK (peptide)
peptide: AVLDLGSLLAK
B5: RLSPNDQYK (peptide)
peptide: RLSPNDQYK
B6: SSASLAHMK (peptide)
peptide: SSASLAHMK
B7: TVASLHTEK (peptide)
peptide: TVASLHTEK
B8: AVATKFVNK (peptide)
peptide: AVATKFVNK
B9: ATYEGIQKK (peptide)
peptide: ATYEGIQKK
B10: ATALSLSNK (peptide)
peptide: ATALSLSNK
B11: RLFESSFHY (peptide)
peptide: RLFESSFHY
B12: QVPTFTIPK (peptide)
peptide: QVPTFTIPK
B13: TAYGSTVSK (peptide)
peptide: TAYGSTVSK
B14: KIIAPLVTR (peptide)
peptide: KIIAPLVTR
B15: ALDKPGKSK (peptide)
peptide: ALDKPGKSK
B16: QLYSKFLLK (peptide)
peptide: QLYSKFLLK
B17: STTKLYLAK (peptide)
peptide: STTKLYLAK
B18: MLLQQPLIY (peptide)
peptide: MLLQQPLIY
B19: KTYVGHPVKM (peptide)
peptide: KTYVGHPVKM
B20: KVLGPNGLLK (peptide)
peptide: KVLGPNGLLK
B21: VLGPNGLLK (peptide)
peptide: VLGPNGLLK
B22: KLGNNPVSK (peptide)
peptide: KLGNNPVSK
B23: KSFDRHFEK (peptide)
peptide: KSFDRHFEK
B24: KMAAWPFSR (peptide)
peptide: KMAAWPFSR
B25: SAFGYVFPK (peptide)
peptide: SAFGYVFPK
B26: SSYSRSSAVK (peptide)
peptide: SSYSRSSAVK
B27: STKSTSPPK (peptide)
peptide: STKSTSPPK
B28: ATAYGSTVSK (peptide)
peptide: ATAYGSTVSK
B29: ATWSASLKNK (peptide)
peptide: ATWSASLKNK
B30: KIKEHVRSK (peptide)
peptide: KIKEHVRSK
B31: KMMADYGIRK (peptide)
peptide: KMMADYGIRK
B32: GTESGTILK (peptide)
peptide: GTESGTILK
B33: GSRLGKYYVK (peptide)
peptide: GSRLGKYYVK
B34: KLFGTSGQK (peptide)
peptide: KLFGTSGQK
B35: RIYNGIGVSR (peptide)
peptide: RIYNGIGVSR
B36: STSHHLVSR (peptide)
peptide: STSHHLVSR
B37: KTPSGALHRK (peptide)
peptide: KTPSGALHRK
B38: ITFGERFEY (peptide)
peptide: ITFGERFEY
B39: LSLIDRLVLY (peptide)
peptide: LSLIDRLVLY
B40: YTERDGSAMVY (peptide)
peptide: YTERDGSAMVY
B41: VSNGKWLLY (peptide)
peptide: VSNGKWLLY
B42: YTDKLQHY (peptide)
peptide: YTDKLQHY
B43: LSAGSGPGQY (peptide)
peptide: LSAGSGPGQY
B44: LTDYLKNTY (peptide)
peptide: LTDYLKNTY
B45: GSTMVEHNY (peptide)
peptide: GSTMVEHNY
B46: RSDPVTLDV (peptide)
peptide: RSDPVTLDV
B47: RSDPVTLNV (peptide)
peptide: RSDPVTLNV
B48: EVSNGKWLLY (peptide)
peptide: EVSNGKWLLY
B49: ITAQNHGY (peptide)
peptide: ITAQNHGY

The target in the first experiment is T1, HLA-A*03:01 (human).
T1 construct: Peptide-receptive MHC monomer made by UV cleavage of a UV-sensitive peptide
The experiment in a line: UV-ligand exchange, anti-b2m ELISA; exchange yield grade (+ >10%, ++ >20%, +++ >50, ++++ >75%). An excerpt: (§1) Candidate peptides for T cell based therapies according to the present invention were further tested for their MHC binding capacity (affinity). The individual peptide-MHC complexes were produced by UV-ligand exchange, where a UV-sensitive peptide is cleaved upon UV-irradiation, and exchanged with the peptide of interest as analyzed. Only peptide candidates that can effectively bind and stabilize the peptide-receptive MHC molecules prevent dissociation of the MHC complexes. To determine the yield of the exchange reaction, an ELISA was performed based on the detection of the light chain (β2m) of stabilized MHC complexes. The assay was performed as generally described in Rodenko et al. (Rodenko et al., 2006).
(§2) 96 well MAXISorp plates (NUNC) were coated over night with 2 ug/ml streptavidin in PBS at room temperature, washed 4× and blocked for 1 h at 37° C. in 2% BSA containing blocking buffer. Refolded HLA-A*02:01/MLA-001 monomers served as standards, covering the range of 15-500 ng/ml. Peptide-MHC monomers of the UV-exchange reaction were diluted 100-fold in blocking buffer. Samples were incubated for 1 h at 37° C., washed four times, incubated with 2 ug/ml HRP conjugated anti-β2m for 1 h at 37° C., washed again and detected with TMB solution that is stopped with […]. Absorption was measured at 450 nm. Candidate peptides that show a high exchange yield (preferably higher than 50%, most preferred higher than 75%) are generally preferred for a generation and production of antibodies or fragments thereof, and/or T cell receptors or fragments thereof, as they show sufficient avidity to the MHC molecules and prevent dissociation of the MHC complexes.
In general terms: ELISA stands for enzyme-linked immunosorbent assay.
B1: the peptide exchange yield was in the range of 50 to 75%. B2: the peptide exchange yield was 20 to 50%.

As for B3, the peptide exchange yield fell in the range of 20 to 50%. B4 gave a peptide exchange yield of 50 to 75%. Same read-out and setting: next, B5: 20 to 50%. Same read-out and setting: the result for B6 reads 20 to 50%; that for B7, 20 to 50%; that for B8, 20 to 50%. On the same count and under the same terms, next, B9: 20 to 50%. For B10, the peptide exchange yield fell in the range of 50 to 75%. Still for that read-out and setting: next, B11: 50 to 75%; B12: 20 to 50%.

Regarding B13, the peptide exchange yield lay within 50 to 75%. The same measure, in the same setting: next, B14: 20 to 50%; B15: 20 to 50%. B16: the peptide exchange yield is 50 to 75%. Same read-out and setting: the result for B17 reads 20 to 50%; that for B18, 20 to 50%; that for B19, 50 to 75%. B20 displayed a peptide exchange yield of 20 to 50%. Still for that read-out and setting: next, B21: 20 to 50%. In turn, B22 came in with a peptide exchange yield of 20 to 50%. Same read-out and setting: the result for B23 reads 50 to 75%. On the same count and under the same terms, next, B24: 50 to 75%; B25: 50 to 75%; B26: 50 to 75%.

As for B27, the peptide exchange yield fell in the range of 20 to 50%. B28 gave a peptide exchange yield of 20 to 50%. Same read-out and setting: next, B29: 50 to 75%; B30: 20 to 50%; B31: 50 to 75%.

B32 gave a peptide exchange yield of 20 to 50%. Same read-out and setting: the result for B33 reads 10 to 20%; that for B34, 50 to 75%. In the case of B35, the peptide exchange yield lay within 50 to 75%.

For B36, the peptide exchange yield was in the range of 20 to 50%. B37 came in with a peptide exchange yield of 20 to 50%.

The target in a further experiment is T2, HLA-A*01:01 (human).
T2 construct: Peptide-receptive MHC monomer made by UV cleavage of a UV-sensitive peptide
The description is as above.
Text: as §1, §2
B38 returned a peptide exchange yield of 50 to 75%.

In turn, B39 showed a peptide exchange yield of 20 to 50%. Consider B40, for which the peptide exchange yield is 50 to 75%. Still for that read-out and setting: the result for B41 reads 50 to 75%. Molecule B42 had a peptide exchange yield of 50 to 75%. On the same count and under the same terms, next, B43: 50 to 75%; B44: 50 to 75%; B45: 20 to 50%.

Turning to B46, the peptide exchange yield is 50 to 75%. Same read-out and setting: next, B47: 50 to 75%; B48: 50 to 75%. Molecule B49 showed a peptide exchange yield of 20 to 50%.

Source of the values: patent publication US20180291082A1 (IMMATICS BIOTECHNOLOGIES, published 2018).
